Reference: US20220168400A1, “USE OF A MANGANESE SUPEROXIDE DISMUTASE WITH HIGH STABILITY IN THE PREVENTION OR TREATMENT OF CEREBRAL STROKE” (CARRY HEALTH BIOPHARMACEUTICALS (HANGZHOU) CO., LTD., priority 2019, published 2022)
“And” between values parts separate entries of the source, which are not always exact repeats. Equal values may be shown once.

Experiments:
[1] = test system: middle cerebral artery occlusion (MCAO) model in C57BL/6J mice; experiment: Cerebral infarction area in middle cerebral artery occlusion (MCAO) model (TTC staining); format: in vivo; conditions: vs model group
Text: Male C57BL/6J wild-type mice were all purchased from Guangdong Experimental Animal Center. The male C57BL/6J wild-type mice were 8 weeks old, when they were subjected to establish middle cerebral artery occlusion (MCAO) model.
(3) MS-SOD1 group (10 mice): mice aged 4 weeks were fed with drinking water supplemented with MS-SOD for 4 weeks (3 U/day/g body weight), and then subjected to establish middle cerebral artery occlusion model;
(4) MS-SOD2 group (10 mice): after establishing middle cerebral artery occlusion model, the mice were intragastrically administered with MS-SOD 600 U once when they waked up from the anesthesia. […]
At 24 hours after MCAO model establishment, the head was cut off and the brain was taken after anesthesia. […] The infarction area of each territory was measured by ImageJ software. […] The total infarction area was calculated by integrating the infarction territories between sections.
Finally, the differences of different intervention conditions and MCAO model establishment on the degree of cerebral injury and neurological severity in mice were analyzed. All data were expressed as mean ±standard deviation. […]

[2] = test system: cerebral hemorrhage model in wild-type AB strain zebrafish; experiment: Movement velocity in simvastatin-induced cerebral hemorrhage model in zebrafish; format: in vivo; conditions: for Movement velocity (mean ± SE): n = 10, model control 80, normal control 198 mm/s
Method: 5 dpf wild-type AB strain zebrafish was administered with an aqueous simvastatin solution (0.5 μM) for 18 hours to establish a cerebral hemorrhage model in zebrafish. 180 wild-type AB strain zebrafishes at 5 days post fertilization (5 dpf) were randomly selected and put in a six-well plate, 30 per well (experiment group). Aqueous MS-SOD solutions with concentrations of 222, 667 and 2000 μg/mL were administrated respectively, the concentration of positive control drug icariin was 30 μM, and the normal control group and the model control group were set at the same time. The volume of each well was 3 mL. After treatment of zebrafishes with samples for 4 hours, except for the normal control group, the other experiment groups were treated with simvastatin for 18 hours to establish the cerebral hemorrhage model. After the treatment, 10 zebrafishes from each group were randomly selected to measure the movement velocity (V) of zebrafish using a behavioral analyzer. The statistical significance of the movement velocity was used to evaluate the behavioral improvement effect of MS-SOD on cerebral hemorrhage. The formula of the behavioral improvement effect of MS-SOD on cerebral hemorrhage was as follows: [formula] Statistical analysis was performed using variance analysis and Dunnett's T-test, and p<0.05 indicated a significant difference.

B1: MS-SOD: manganese superoxide dismutase with high stability, gene from Thermus thermophilus HB27 expressed in E. coli; amino acid sequence SEQ ID NO: 4 (protein)
chain: MPYPFKLPDLGYPYEALEPHIDAKTMEIHHQKHHGAYVTNLNAALEKYPYLHGVEVEVLLRHLAALPQDIQTAVRNNGGGHLNHSLFWRLLTPGGAKEPVGELKKAIDEQFGGFQALKEKLTQAAMGRFGSGWAWLVKDPFGKLHVLSTPNQDNPVMEGFTPIVGIDVWEHAYYLKYQNRRADYLQAIWNVLNWDVAEEFFKKA
modifications: Amino acid sequence for MS-SOD
With B1 the “area of cerebral injury” value ([1]; MS-SOD1 group: 3 U/day/g body weight for 4 weeks before MCAO, P=0) was “significantly reduced”, the “area of cerebral injury” value ([1]; MS-SOD2 group: 600 U intragastrically once after MCAO, P=0.015) was “significantly reduced” and the Movement improvement effect ([2]; MS-SOD 222 μg/mL) was −2%. For the same molecule, the “Movement velocity (mean ± SE)” value ([2]; MS-SOD 222 μg/mL) was 78 mm/s and 78 ± 4 mm/s, the Movement improvement effect ([2]; MS-SOD 667 μg/mL) was 7% and the “Movement velocity (mean ± SE)” value ([2]; MS-SOD 667 μg/mL) was 88 mm/s and 88 ± 3 mm/s. For the same molecule, the Movement improvement effect ([2]; MS-SOD 2000 μg/mL) was 53% and the “Movement velocity (mean ± SE)” value ([2]; MS-SOD 2000 μg/mL) was 143 mm/s and 143 ± 24 mm/s.
